Measurements as given in PMC5037814.

Assays:
[1] = target: native bovine Casq1 (skeletal muscle calsequestrin, glycosylated) (bovine (B. taurus)); assay: SEC-MALS; 50 µM Casq1 on Yarra 3u SEC-2000, 20 mM MOPS, 300 mM KCl, 0.05 g/dL NaN3, pH 7.2, 1 mM CaCl2
[2] = target: native bovine Casq1 (skeletal muscle calsequestrin, glycosylated) (bovine (B. taurus)); assay: SEC-MALS; 50 µM Casq1 on Yarra 3u SEC-2000, 20 mM MOPS, 300 mM KCl, 0.05 g/dL NaN3, pH 7.2, 2 mM CaCl2
[3] = target: native bovine Casq1 (skeletal muscle calsequestrin, glycosylated) (bovine (B. taurus)); assay: crystal structure; high-Ca2+ form: protein incubated with 5 mM Ca2+ before mixing (2.5 mM in the drop); hanging drop, 4 °C, 0.1 M HEPES, 0.2 M NaCl, 27.5% MPD, pH 7.0
[4] = target: recombinant bovine Casq1 (non-glycosylated) (bovine (B. taurus)); assay: SEC-MALS; 50 µM Casq1 on Yarra 3u SEC-2000, 20 mM MOPS, 300 mM KCl, 0.05 g/dL NaN3, pH 7.2, 2 mM CaCl2
[5] = target: recombinant bovine Casq1 (non-glycosylated) (bovine (B. taurus)); assay: crystal structure; high-Ca2+ form: protein incubated with 5 mM Ca2+ before mixing (2.5 mM in the drop); hanging drop, 4 °C, 0.1 M HEPES, 0.2 M NaCl, 27.5% MPD, pH 7.0

Row | stoichiometry N [1] | stoichiometry N [2] | stoichiometry N [3] | stoichiometry N [4] | stoichiometry N [5] | Substance
1 | 2 | 4 | 6 |  |  | native bovine Casq1 (skeletal muscle calsequestrin, glycosylated) (natural protein)
2 |  |  |  | 2 | 6 | recombinant bovine Casq1 (non-glycosylated) (natural protein)
